Assay: soluble on expression in E. coli; label from the status in PepcDB or PDB records

| Sequence | soluble on expression in E. coli |
| --- | --- |
| MLMSVFHNWLLEIACENYFVYIKRLSANDTGATGGHQVGLYIPSGIVEKLFPSINHTRELNPSVFLTAHVSSHDCPDSEARAIYYNSAHFGKTRNEKRITRWGRGSPLQDPENTGALTLLAFKLDEQGGDCKEVNIWVCASTDEEDVIETAIGEVIPGALISGPAGQILGGLSLQQAPVNHKYILPEDWHLRFPSGSEIIQYAASHYVKNSLDPDEQLLDRRRVEYDIFLLVEELHVLDIIRKGFGSVDEFIALANSVSNRRKSRAGKSLELHLEHLFIEHGLRHFATQAITEGNKKPDFLFPSAGAYHDTEFPVENLRMLAVKTTCKDRWRQILNEADKIHQVHLFTLQEGVSLAQYREMRESGVRLVVPSSLHKKYPEAVRAELMTLGAFIAELTGLYADIP | soluble |
| MLNARINQSIKCNQVRIHNVADKITWAELTKIEQLLKIIPQWEKLIKIQTTSKIFNSTSWVASWLETFWQKNWQLNVLIAWCDDELIAIVPLYYQQNNSILPMKVLYPLGQGEAEAQEISTEYTDILINEKFQEHLLPKIQQWILNLKADQLHWHALLHNSSTRNILADYEQTKSNEATRYIVNGLNWSLENLSKNMRSRYRRGLNQLDKLNATIDWVEQSDFDQYWQLMKKLHQKRWQGKNAKGAFCSDEFNQFHAKFREKSPKNIAMSAIWVNDTPIAIHYYFSDATTLYFYQSGWNESEYSHLSPGLILHLWTIENNNKPYYDFMMGKKKDSYKAKFATLQQPMYNITLTFSPIKLLFYSVFEKIKVKYLSA | not soluble |
| MLNEKQAKHIATAIENGNYRSKRQAIVDTTNFWSVSVPIFYQFDTKLSATNIANVRKAIQFWNDNSCLSFKEDNNAKNRLFLSSAGGCWSYVGKQVDMPYQMVSVGPNCDTFGTATHELMHAIGFWHQQSRADRDNYVYVDFSNIIPSQAYNFQKMAVDQAQLLNLPYDYGSVMQYYPYAFAVDSSKYTILAKENGFQNSMGQREAPAFSDIIGVNKLYNCTSQCKIQMKCSNCGITDSRNCNQCKCPRYFTGASCDSLPSGTAPNCNGAVLQATSSWETFDAKAGDPSSFSSSTDNSTNCYWHIKAPEGQQIEFKMTKTPLAAICMQECPWQSIEVNLGKFDLFGMITCCDTILNQVFTSELNMIALRGIIRYNQLTFSIQYRAVPSSKPASTNACLNQ | not soluble |
| MLNIFTTISKINITSLAIGCFDGMHLGHLKLVKCLDENGALLVINKFKGQFLCSNRQKEEISGKKVIEVDFESIKSLDGRDFLSFLKKEFVNLKFIVVGYDFSFGKNRAYNAKDIESLSGIKTIIVDEFSIDGIGVHASLIKDFLSKANLQKAKEFLGRDYSIKGKMIKGQGLGSKELFATINLDCEGYFLPQNGVYVTLLKSQRKTYKSVSFLGVRSSDENFAIESHILEELGENFTQGEFFELEFISFLRENQKFQDLKKLKNQIAKDIEQARELLRKNDER | not soluble |
| MLNILDIITDWIKEILRDCIMGNLDGMFDQINNEVGEVAANVGTTPAAWNAGVFSMIRNLSDT | not soluble |
| MLPDVQLLKPEVPIGLSRVGATGIKKLVEVQREGKRPIILISTFDVFVDLPAHLKGVNLSRNFEVIDEVLETLTAKPIENIEDLVVEIADHLLKRHEYATKAEARMNSELIMRKRTPKTGQRTQEVVKIFGEATLGRDGSKVIMVGVEVTGITACPCAQELVKASSAERLAKMGFDEETIQKILDAIPVATHNQRGRATLKVQVTDSFKVPIAKLIDVAKSSMSYETYEILKREDELAVVEAAHRNTRFVEDGVRYMAMELLKTFPNAPDDILVFLRQENEESIHQHNVVAERFA | not soluble |
| MLPQRLKKAITDNPKKLGNLIDLVNLPSTLRNFVGQSQISRLGCFMRVWSYIKTNNLQDPKNKNVVICDEKLKSILLGKQRVELVDLPSLIKLHFPKEQKKNSQKI | not soluble |
| MLQISHLYADYGGKPALEDINLTLESGELLVVLGPSGCGKTTLLNLIAGFVPYQHGSIQLAGKRIEGPGAERGVVFQNEGLLPWRNVQDNVAFGLQLAGIEKMQRLEIAHQMLKKVGLEGAEKRYIWQLSGGQRQRVGIARALAANPQLLLLDEPFGALDAFTRDQMQTLLLKLWQETGKQVLLITHDIEEAVFMATELVLLSSGPGRVLERLPLNFARRFVAGESSRSIKSDPQFIAMREYVLSRVFEQREAFS | soluble |
| MLQVTGIPDACDNLAPIPMECDAPFLSIKGELPRELNGTLYRNGANPQFVSPNAHWFFGDGMLHAFHLENGRASYRNRWVRTPKWLAEHEAGRPLYGEFNLKLPDAPRSVPDDGNVANTNIVFHAGRLLALEEAHLPMQIERDTLETRCYCDYGGALKGPFTAHPKIDPVTGEMLFFGYNASGPLTRTMSFGAIDASGNVTRLEHFKAPFAAMVHDFIVTEHHVLFPILPLTGSIWRAMRGRPPYAWDPRKGSYVGVMKRSGSTRDVRWFRGEACFVFHVMNAWEDGTRIVADVMQSEEAPLFTHPDGRRTDPEKGRARLCRWSFDLAGNTNAFKRSYLDEISGEFPRIDERRAGLRSGHGWYACASPETPMLGMLTGLVHVDGNGHRRTRYLLPTGDTIGEPVFVPRAADANEAEGWLLAVVWRGCENRSDLAVFNATDIAAGPIALVQLGHRIPDGFHGNWVPAGAAALEHHHHHH | not soluble |
| MLRDTFANTLKDALKARDARRTSTVRLIQAAVKDRDIANRGVGKDPVSDEDIMQILTKMVKQREESATIYEGAGRPELAAQEREEIVIIKEFMPEEIPAEKVRELCQAVISETGASGLRDMGKCMNALKERYPGQIDFAKASGVVKDLLK | not soluble |
| MLRIIVIGTTGSGKTTFARALAQRLGLPHGEQDAWNHEANWQMAPLGRFRARVDTFTSQPAWVMDGNYGKARDLGWARADTLIWLDFPAWLVYSRLVRRTLWRVLTQQELWNGNRETWRGALLDPEGPLRWFWKTHWRRRQETPALAAEFPHLRLVRLRSPGEARRFLAAVGRGHPTALEHHHHHH | not soluble |
| MLRKDIGIDLGTANTLVFLRGKGIVVNEPSVIAIDSTTGEILKVGLEAKNMIGKTPATIKAIRPMRDGVIADYTVALVMLRYFINKAKGGMNLFKPRVVIGVPIGITDVERRAILDAGLEAGASKVFLIEEPMAAAIGSNLNVEEPSGNMVVDIGGGTTEVAVISLGSIVTWESIRIAGDEMDEAIVQYVRETYRVAIGERTAERVKIEIGNVFPSKENDELETTVSGIDLSTGLPRKLTLKGGEVREALRSVVVAIVESVRTTLEKTPPELVSDIIERGIFLTGGGSLLRGLDTLLQKETGISVIRSEEPLTAVAKGAGMVLDKVNILKKLQGAGGSHHHHHH | soluble |
| MLRLLLLCWLCGVSFIGGAQELRVKDTASLTQALVQAQDGDTLVLDTAVYEGNFSVTRSIHIKGEAGATLDAQRQGSALTITAPKVIVEGLNIRHWGRDLYYHDAGILLLPGADEVLIKGNRFVGDGFGIYGEQLASPRIIENSISGNGAIYVLDRGDGIFLKHVTAPDVQQNHIIFVRDGVYLESVTDSKIHHNQFAKLQYGIHYMYTRGDEASQNQATSVDGGYALMNSQQIYLHHNRVSQARDFGILLNITNDSHVQANIATEVQHPQGSVELGNEGKGIFIYAAQNNRIEDNEFSQSDTGISMAMGGEANRLWHNRILGNQTQVKYVGEAQLEWSYQGQGNYWSEYRGWDTNGDGVGDIAHRPNDSLDKLFWLYPEAKLLMESPVVLLLRWVERQFQPTSISGVSDSFPLMRLITEGDGIAAALEHHHHHH | soluble |
| MLRRYSHFYSIRYSSTLLSTLDGLTNRTSGDKLLTYSEKFSKLYANSTPETRKSIFVDLVTNYGVNKEALNHAISLYSKNDQMYPEVRTSATASYVNLIKSIGNLPGGVMQVCEMRANILALLKRETDKTTTSYLRHIELATREVLTSWFSLGNLKLERLTWSSPGDILQKVAEYEAVHPVRGLSDFRKRLGPLRRCFYFSHEALPRNPLVMVHVALVDEIADSVQEITKRGAPTGKEEDQTTAIYYSITSTQPGLSGIDLGNMLIKKVATKLQKDVPSVTTHSTLSPIPGFRPWLIRNLKGNSEYPSIMNEKVVNWISDISEREMNEVEATETLLKVISNEKTKKEQLNAIQHILMYACAHYLCNAKRNGMALNSVANFHIRNGAELYRLNWNGDTSHRGINNSFGIMVNYRYDLEKVHENSAAYTEHKKMAINQKVLDIF | not soluble |
| MLRSNLCRGSRILARLTTTPRTYTSAATAAAANRGHIIKTYFNRDSTTITFSMEESSKPVSVCFNNVFLRDASHSAKLVTTGELYHNEKLTAPQDIQISEDGKSLVVKWKDGGHHQFPLQFFIDYKGSSFVSPATRKQESRYRPQLWNKRILKDNVKDLLSVSYNEFIDPKDDSKLFQTLVNLQKFGIAFISGTPSSSSEGLTIQKICERIGPIRSTVHGEGTFDVNASQATSVNAHYANKDLPLHTDLPFLENVPGFQILQSLPATEGEDPNTRPMNYFVDAFYATRNVRESDFEAYEALQIVPVNYIYENGDKRYYQSKPLIEHHDINEDNTLLGNYEALIKCINYSPPYQAPFTFGIYDKPSDLNNNLDLNLITTPAKLTERFLFKSFIRGLNLFESHINDFNNQFRLQLPENCCVIFNNRRILHANSLTSSNQQWLKGCYFDSDTFKSKLKFLEEKFPHDK | soluble |
| MLRSTSDRFRWSSLSLAIACTLPLATQAADTTTTQTSSKKHSTDTMVVTATGNERSSFEAPMMVTVIEGNAPTSQTAATAADMLRQVPGLTVTGSGRTNGQDVVMRGYGKQGVLTLVDGVRQGTDTGHLNSTFLDPALVKRIEIVRGPAALLYGSGALGGVIAYETVDAADMLQPGQNSGYRVYSSAATGDHSFGLGASAFGRTDDLDGILSFGTRDIGNIRQSNGFNAPNDETISNVLAKGTWQIDSIQSLSANLRYYNNSAIEPKNPQTSAPSSTNVMTNRSTIQRDAQLRYNIKPLDQEWLNATAQVYYSEVEINARPQGSAEEGREQTTEGVKLENRTRLFIESPASHLLTYGTETYKQEQTPGGATESFPQAKIRFSSGWLQDEITLRDLPVSILAGTRYDNYSGSSDGYADVDADKWSSRGAISITPTDWLMLFGSYAQAFRAPTMGEMYNDSKHFAIPIRPGLTLTNYWVPNPNLKPETNETQEYGFGLRFSDLLMAEDDLQFKVSYFDTKAKDYISTRVDMQAMTTTSVNIDQAKIWGWDASMSYKTALFNWDLAYNRTRGKNQNTDEWLDTINPDTVTSIVDVPVANSGFSVGWIGTFANRSSRVSSSTPQAGYGVNDFYVSYKGQEAFKGMTTTMLLGNVFEKEYYTPQGIPQDGRNVKFFVSYQW | not soluble |
| MLSCRDLVIRQGGKVLWQNLTFTISAGERVGIHAPSGTGKTTLGRVLAGWQKPTAGDVLLDGSPLPLHQYCPVQLVPQHPELTFNPWRSAGDAVRDAWQPDPETMRRLHVQPEWLTRRPMQLSGGELARIAILRALDPRTRFLIADEMTAQLDPSIQKAIWVYVLEVCRSRSLGMLVISHQSALLDQVCTRHLQVE | not soluble |
| MLSEVEFVEFQKENFSLLIDARSPREFLHSHLIGALNFYALNDEEYQEIGTIYKKNQALAKAMGASYICQNTTKHILEITQNFRIGEKVGIYCSRGGLRSKSIAVILSELGFRVVRLKGGFKAYRTFVTHYFENEINFDFFALCGNTGCGKTELLEQLPQAINLEKMANHLGSSFGDILGKQPTQKAFEAELFHNIQNLENFAFIESESRKIGDIILPLKFYEKMQKAFKIYCFCSLENRVRRIQKIYQEKMTPLKFQQCVQKISPYISLNLRQDLLQSYERKEWQKLIVMLLEYYDKTYKKPDKIDLELNTDDILKAKEELLDHFKVQLLF | not soluble |
| MLSKNLLEALNDQMNHEYFAAHAYMAMAAYCDKESYEGFANFFIQQAKEERFHGQKIYNYINDRGAHAEFRAVSAPKIDFSSILETFKDSLSQEQEVTRRFYNLSEIARQDKDYATISFLNWFLDEQVEEESMFETHINYLTRIGDDSNALYLYEKELGARTFDEE | not soluble |
| MLSNDILRSVRYILKANNNDLVRILALGNVEATAEQIAVWLRKEDEEGFQRCPDIVLSSFLNGLIYEKRGKDESAPALEPERRINNNIVLKKLRIAFSLKTDDILAILTEQQFRVSMPEITAMMRAPDHKNFRECGDQFLRYFLRGLAARQHVKKG | soluble |

From the DeepSol protein solubility set
